Results published in PMC4650570 (Cell Research, 2014).

What was measured:
[1] = target: Clostridium difficile toxin B, His-tagged (TcdB-His) (Clostridium difficile, UniProt P18177 1-2366); experiment: SPR
[2] = target: GST-TcdB-C(1500-2366) (Clostridium difficile, UniProt P18177 1500-2366); experiment: pull-down
GST-TcdB-C(1500-2366), sequence (P18177 1500-2366): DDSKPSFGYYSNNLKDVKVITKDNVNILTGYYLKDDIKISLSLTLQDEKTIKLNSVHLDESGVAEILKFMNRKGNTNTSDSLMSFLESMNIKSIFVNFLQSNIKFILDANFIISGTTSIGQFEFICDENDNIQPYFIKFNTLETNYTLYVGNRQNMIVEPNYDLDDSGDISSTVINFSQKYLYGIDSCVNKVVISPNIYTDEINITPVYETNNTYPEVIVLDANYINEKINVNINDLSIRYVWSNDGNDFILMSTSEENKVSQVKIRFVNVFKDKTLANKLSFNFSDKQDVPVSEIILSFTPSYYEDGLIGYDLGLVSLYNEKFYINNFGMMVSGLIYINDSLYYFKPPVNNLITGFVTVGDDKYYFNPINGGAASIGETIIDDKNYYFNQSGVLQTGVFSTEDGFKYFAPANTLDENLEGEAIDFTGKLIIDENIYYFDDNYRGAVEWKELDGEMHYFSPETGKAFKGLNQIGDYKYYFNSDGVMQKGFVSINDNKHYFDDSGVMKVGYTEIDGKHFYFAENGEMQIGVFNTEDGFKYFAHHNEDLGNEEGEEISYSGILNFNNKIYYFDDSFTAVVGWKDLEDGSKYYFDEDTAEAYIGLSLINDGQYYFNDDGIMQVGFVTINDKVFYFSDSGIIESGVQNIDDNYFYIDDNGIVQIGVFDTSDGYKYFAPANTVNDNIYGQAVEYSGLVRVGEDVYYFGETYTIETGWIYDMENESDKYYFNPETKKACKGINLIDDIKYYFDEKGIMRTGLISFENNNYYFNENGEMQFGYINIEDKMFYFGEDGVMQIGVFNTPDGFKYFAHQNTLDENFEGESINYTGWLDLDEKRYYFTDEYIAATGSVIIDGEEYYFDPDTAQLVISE

Clostridium difficile toxin B, His-tagged (TcdB-His), sequence (P18177 whole entry): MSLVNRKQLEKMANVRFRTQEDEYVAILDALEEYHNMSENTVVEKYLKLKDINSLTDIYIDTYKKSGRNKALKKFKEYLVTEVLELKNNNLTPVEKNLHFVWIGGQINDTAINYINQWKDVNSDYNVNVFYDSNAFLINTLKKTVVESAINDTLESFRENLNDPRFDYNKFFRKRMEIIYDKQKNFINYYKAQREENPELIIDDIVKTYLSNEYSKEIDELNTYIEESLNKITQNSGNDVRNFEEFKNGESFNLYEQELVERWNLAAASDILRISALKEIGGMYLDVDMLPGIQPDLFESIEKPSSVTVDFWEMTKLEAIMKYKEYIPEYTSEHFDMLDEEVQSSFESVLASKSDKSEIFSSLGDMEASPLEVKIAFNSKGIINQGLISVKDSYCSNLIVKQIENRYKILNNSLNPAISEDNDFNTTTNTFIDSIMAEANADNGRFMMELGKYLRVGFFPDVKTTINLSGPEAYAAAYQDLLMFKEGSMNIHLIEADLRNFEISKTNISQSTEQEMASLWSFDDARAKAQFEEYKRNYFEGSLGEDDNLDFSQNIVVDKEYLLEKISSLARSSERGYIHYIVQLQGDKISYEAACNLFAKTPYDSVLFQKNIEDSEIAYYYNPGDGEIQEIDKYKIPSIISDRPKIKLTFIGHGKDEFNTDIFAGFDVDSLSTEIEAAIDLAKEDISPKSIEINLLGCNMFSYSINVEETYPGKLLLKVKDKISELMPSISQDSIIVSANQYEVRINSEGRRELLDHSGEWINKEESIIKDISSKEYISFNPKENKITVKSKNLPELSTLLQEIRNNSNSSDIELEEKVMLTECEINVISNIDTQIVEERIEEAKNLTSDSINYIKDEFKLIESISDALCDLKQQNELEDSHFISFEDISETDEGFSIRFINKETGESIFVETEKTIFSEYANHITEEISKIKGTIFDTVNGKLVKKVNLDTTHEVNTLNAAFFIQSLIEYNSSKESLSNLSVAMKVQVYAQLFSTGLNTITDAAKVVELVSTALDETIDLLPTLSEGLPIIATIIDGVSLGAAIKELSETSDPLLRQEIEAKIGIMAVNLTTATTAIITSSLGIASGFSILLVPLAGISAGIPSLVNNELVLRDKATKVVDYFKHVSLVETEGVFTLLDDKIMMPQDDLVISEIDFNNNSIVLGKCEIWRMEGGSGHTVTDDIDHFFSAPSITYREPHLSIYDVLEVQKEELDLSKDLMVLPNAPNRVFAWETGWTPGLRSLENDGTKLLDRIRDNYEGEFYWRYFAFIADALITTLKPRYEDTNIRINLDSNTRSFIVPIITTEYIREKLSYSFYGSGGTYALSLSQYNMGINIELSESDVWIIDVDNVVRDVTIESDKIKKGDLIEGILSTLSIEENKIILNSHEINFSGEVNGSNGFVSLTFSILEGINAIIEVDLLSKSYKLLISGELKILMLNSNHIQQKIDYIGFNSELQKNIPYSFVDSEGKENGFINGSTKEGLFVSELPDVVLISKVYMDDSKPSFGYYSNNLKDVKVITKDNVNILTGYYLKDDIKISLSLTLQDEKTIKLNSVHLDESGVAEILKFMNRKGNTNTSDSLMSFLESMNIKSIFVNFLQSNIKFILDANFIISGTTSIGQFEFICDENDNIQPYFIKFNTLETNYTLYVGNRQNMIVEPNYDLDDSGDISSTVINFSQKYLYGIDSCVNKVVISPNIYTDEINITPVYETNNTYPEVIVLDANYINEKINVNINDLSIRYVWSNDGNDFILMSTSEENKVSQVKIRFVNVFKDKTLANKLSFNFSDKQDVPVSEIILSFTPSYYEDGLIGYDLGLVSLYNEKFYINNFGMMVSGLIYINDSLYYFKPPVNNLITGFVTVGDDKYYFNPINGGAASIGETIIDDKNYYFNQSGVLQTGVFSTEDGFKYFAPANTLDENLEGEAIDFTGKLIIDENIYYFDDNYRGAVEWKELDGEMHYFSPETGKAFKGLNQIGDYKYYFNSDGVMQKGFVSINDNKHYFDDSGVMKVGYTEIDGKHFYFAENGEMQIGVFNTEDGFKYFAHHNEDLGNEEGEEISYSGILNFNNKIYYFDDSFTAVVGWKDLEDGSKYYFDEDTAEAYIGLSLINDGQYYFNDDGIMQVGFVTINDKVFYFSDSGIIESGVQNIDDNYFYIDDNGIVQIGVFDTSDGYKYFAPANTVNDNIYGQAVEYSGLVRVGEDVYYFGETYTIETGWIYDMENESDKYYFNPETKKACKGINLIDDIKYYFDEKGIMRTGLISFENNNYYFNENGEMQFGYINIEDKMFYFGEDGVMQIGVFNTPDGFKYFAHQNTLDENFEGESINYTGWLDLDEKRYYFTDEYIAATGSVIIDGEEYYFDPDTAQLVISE

B1: CSPG4-N(401-560)-Fc (Fc fusion)
chain: LAPEAWPAMELPEPCVPEPGLPPVFANFTQLLTISPLVVAEGGTAWLEWRHVQPTLDLMEAELRKSQVLFSVTRGARHGELELDIPGAQARKMFTLLDVVNRKARFIHDGSEDTSDQLVLEVSVTARVPMPSCLRRGQTYLLPIQVNPVNDPPHIIFPHG
Kd [1]: 28.9 ± 0.7 nM

B2: CSPG4-N(30-640)-Fc (Fc fusion)
chain: ASFFGENHLEVPVATALTDIDLQLQFSTSQPEALLLLAAGPADHLLLQLYSGRLQVRLVLGQEELRLQTPAETLLSDSIPHTVVLTVVEGWATLSVDGFLNASSAVPGAPLEVPYGLFVGGTGTLGLPYLRGTSRPLRGCLHAATLNGRSLLRPLTPDVHEGCAEEFSASDDVALGFSGPHSLAAFPAWGTQDEGTLEFTLTTQSRQAPLAFQAGGRRGDFIYVDIFEGHLRAVVEKGQGTVLLHNSVPVADGQPHEVSVHINAHRLEISVDQYPTHTSNRGVLSYLEPRGSLLLGGLDAEASRHLQEHRLGLTPEATNASLLGCMEDLSVNGQRRGLREALLTRNMAAGCRLEEEEYEDDAYGHYEAFSTLAPEAWPAMELPEPCVPEPGLPPVFANFTQLLTISPLVVAEGGTAWLEWRHVQPTLDLMEAELRKSQVLFSVTRGARHGELELDIPGAQARKMFTLLDVVNRKARFIHDGSEDTSDQLVLEVSVTARVPMPSCLRRGQTYLLPIQVNPVNDPPHIIFPHGSLMVILEHTQKPLGPEVFQAYDPDSACEGLTFQVLGTSSGLPVERRDQPGEPATEFSCRELEAGSLVYVHRGGPAQDLTF
binding result [2]: binds
